The values below are quoted from earlier work in paper PMC4586518, “Melanin production through novel processing of proopiomelanocortin in the extracellular compartment of the auricular skin of C57BL/6 mice after UV-irradiation” (Scientific Reports, 2015).

For data set [1], the system named is MC-1R. Further details: method as in 2 sources, ref 23 = [23]; PMID 17317724; doi:10.1096/fj.06-7398com; Rousseau K. et al. Proopiomelanocortin (POMC), the ACTH/melanocortin precursor, is secreted by human epidermal keratinocytes and melanocytes and stimulates melanogenesis . FASEB J 21 , 1844 – 1856 ( 2 ||| ref 34 = [34]; PMID 1556905; doi:10.1016/0024-3205(92)90347-r; Slominski. A. et al. Melanotropic activity of gamma MSH peptides in melanoma cells . Life Sci , 50 , 1103 – 1108 ( 1992 ). 1556905 10.1016/0024-3205(92)90347-r. Particulars: MC-1R. The source says:
To clarify the mechanism of melanin production after UV-irradiation, we assessed the expression of POMC and POMC-derived peptides after UV-irradiation to the skin of the murine auricle.

Data set [2] relates to MC-1R. From the text:
Melanin plays an important role in protecting skin after UV-irradiation. α-MSH is a major catalyst for melanogenesis in the skin following UV-irradiation. α-MSH-LI and ACTH-LI may be present in culture media of normal keratinocytes, fibroblasts, melanocytes, and their cell extracts. Although POMC and POMC-derived peptides such as ACTH and α-MSH are released from the intermedia of the pituitary, it is unlikely that pituitary secretions contribute to local pigmentation. In the present report, POMC-related peptides were detected in the UV-irradiated auricle ... || Structure-activity analyses of α-MSH have reported information on the essential sequence required for MC-1R binding and melanin production. […] However, Ac-His-Phe-Arg-Trp-NH2 had 400,000-fold less activity (EC50 20 μM) than α-MSH in a frog skin bioassay[31] and approximately 7,000-fold less activity (EC50 1 μM) in a lizard skin bioassay. Furthermore, the N-terminal region of α-MSH is ...

B1: proopiomelanocortin (protein, UniProt P01189 1-267, looked up)
chain: MPRSCCSRSGALLLALLLQASMEVRGWCLESSQCQDLTTESNLLECIRACKPDLSAETPMFPGNGDEQPLTENPRKYVMGHFRWDRFGRRNSSSSGSSGAGQKREDVSAGEDCGPLPEGGPEPRSDGAKPGPREGKRSYSMEHFRWGKPVGKKRRPVKVYPNGAEDESAEAFPLEFKRELTGQRLREGDGPDGPADDGAGAQADLEHSLLVAAEKKDEGPYRMEHFRWGSPPKDKRYGGFMTSEKSQTPLVTLFKNAIIKNAYKKGE
modifications: full-length
notes: precursor of α-MSH and ACTH; 32 kDa
Consider B1, for which the “affinity for MC-1R” value in the data set with MC-1R [1] was “markedly low”. For the same molecule, the “influence on melanogenesis via MC-1R” value in the data set with MC-1R [2] is “only slightly influenced melanogenesis via MC-1R”.
